The nanobody polyreactivity screen of Harvey et al. (2022)

Experiment: yeast display, Sf9 membrane polyspecificity reagent, FACS + sequencing; frameworks hold sequencing errors
How it was run: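 In a synthetic yeast display library (Saccharomyces cerevisiae BJ5465), nanobody expression was induced with galactose for 36–48 hours. FACS gates were set low and high (top ~1%) using anti-HA fluorescence for expression and streptavidin fluorescence for binding of the Sf9 membrane reagent. Each polyreactivity label is drawn from the gate of origin.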

Sequence | polyreactivity (PSR sort gate)
QVQLVESGGGLVQAGGSLRLSCAASGSTFVYNAMGWYRQAPGKERELVAAITVIGGRTYYADSVKGRFTISRDNAKNTVYLQMISLKPEDTAVYYCNADATESIGYYDEYEYWGQGTQVTVSS | low polyreactivity
QVQLVESGGGLVQAGGILRLSCAASGSIFYWSTMGWYIQAPGKERELVAAISSIDGNTYYADSVKGRFTISRDNAKNTVYLQMNSLKPEDTAVYYCAAAYYNTDYYYWGQGTQVTVSS | low polyreactivity
QVQLVESGGGLVQAGGSLRLSCAASGFTFRWYTMGWYRQAPGKEREFVAAISSSGGSTYYADSVKGRFTISRDNAKNTVYLQMKSLKPEDTAVYYCARASRGYTYEYWGQGTQVTVSS | high polyreactivity
KVQLVESGGGLVQAGGSLRLSCAASGSIFTYYAMGWDRQAPGKERELVAAISIGGRTDYADSVKGRFTISRDNAKNTVSLQMNSLKPEDTAVYYCVAKGHLDSGGYEYYYWRQGTQVTVSS | low polyreactivity
QVQLVESGGGLVQAGGSLRLSCAASGSTFDKYAMGWYRQAPGKERELVAAISSGSSTSYADSVKGRFTISRDNAKNTVYLQMNSLKPEDTAVYYCAAEVAESIEDDYWGQGTQVTVSS | low polyreactivity
QVQLEESGGGLVQAGGSLRLSCAASGSTFNDYAMGRYRQAPGKERELVAAISSSGGITYYADSVKGRFTISRDNAKNTVYLQMNSLKPEDTEVYYCAASGRDWSWYDYWGQGTQVTVSS | low polyreactivity
QVQLVESGGGLVQAGGSLRLSCAASGLTFQPNVMGWYRQATGKERELVAAISVRTTRTYYADSVKGRFTISRDNAKNTVYLQMNSLKPEDTAVYYCNTDISRNYYWALYGYWGQGTQVTVSS | low polyreactivity
QVQLVESGGGLVQARGSLRLSCAASGSTFYPYAMGWYRQAPGKERELVAAISSGGSTSYADSVKGRFTISRDNAKNTVYLQMNSLKPEDTAVYYCNASSPGAVPVYDYDYWGQGTQVTVSS | low polyreactivity
QVQLVESGGGLVQAGGSLRLSCAASGSTFIYNAMGWYRQAPGKERELVAAISSGGSTYYADSVKGRFTISRDNAKNTVYLQMNSLKPEDTAVYYCNAYRYRHYRVDYWGQGTQVTVSS | low polyreactivity
QVQLVESGGGLVQAGGSLRLICAASGSIFSKYVMGWYREAPGKERDLVAAISWSGTRTYYADSVKGRFTISRDNAKNTVILQMNSMKAEDTAVYYCAARRLYAGHQYDYWGQGTIVTVSS | high polyreactivity
QVQLVESGGGLVQAGGSLRLSCAASGRTFYVYAMGWYRQAPGKERELVAAISKSGGSTYYADSVKGRFTISRDNAKNTVYLQMNSLKPEDTAVYYCAARKSDPRTKLYNYWGQGTQVTVSS | high polyreactivity
QVQLVESGGGLVQAGGSLRLSCAASGGIFIGYAMGWYRQAPGKERELVARIRSSGGTTYYADSVKGRFTISRDNAKNTVYLQMNSLKPEDTAVYYCAKRTSSSWAYGPYYYWGQGTQVTVSS | high polyreactivity
QVQLVESGGGLVQAGGRLRLSCAASGSIFRRYAMGWYRQAPGKERELVAAISSTPITYYADSVKGRFTISRDNAKNTVYLQMNSLKPEDTAVYYCAAELLLSYYYGLEDDYWGQGTQVTVSS | low polyreactivity
QVQLVESGGGLVQAGGSLRLSCAASGRTLNNNAMGWYRQAPGKERELVAAISRSGGRTYYADSVKGRFTISRDNAKNTVYLQMNSLKPEDTAVYYCAAVNIRFGYADRFYYVYRGDEWGQGTQVTVSS | high polyreactivity
QVQLVESGGVLVQAGGSLRLSCAASGSTFYTYAMGWYRQAPGKERELVAAITRRGGRTYYADSVKGRFTISRDIAKNTVYLQMNSLKPEDTSVYYCAAYPWATCYGEWGQGTQVTVSS | high polyreactivity
QVQLVESGGGLVQAGGSLRLSCAASGFIFTGNAMGWYRQAPGKERELLAAISSSGTRTYYADSVKGRFTISRDNASNTVYLQMNSLKPEDTAVYYCNKLYLVWNFYSGYDYWGQGTQVTVSS | high polyreactivity
QVQLVESGGGLVQAGGSLRLSCAASGSIFGAYTMGWYRQAPGKERELVAAISRSGSTYYADSVKGRFTISRDNAKNTVYLQMKSLKPEDTAVYYCYGVGYSGLRRYYKYDYWGQGTQVTVSS | high polyreactivity
QVQLVESGGGLVQAGGSLRLSCAASGSTFYYYAMGWYRQAPGKERELVAVISWGGGSTYYADSVKGRFTISRDNAKNTVYLQMNSLKPEDTAVYYCAAVYDEYQTTHEYDYWGQGTQVTVSS | low polyreactivity
QVQLEESGGGLVQAGGSLRLSCAASGFNFWVYAMGWYRQAPGKERELVAAISYNGGRTYYADSVKGRFTISRDNAKNTVYLQMNSLKPEDTAVYYCASLPAPTGRGDYWGQGTQVTVSS | high polyreactivity
QVQLVESGGGLVQAGGSLRLSCAGSGSTFRSNAMGWYRQAPGKERELVAAISRSGGRTYYADSVKGRFTISRDNAKNTVYLQMNSLKPEDTAVYYCNTVLKRQRKNEYWGQGTQVTVSS | high polyreactivity
QVQLVESGAGLVQAGGSLRLSCATYGITISYYAMVWYGQGPGKVSELVAAISTSGGSTYYADSVKGRFTFSRDNAKNTVYLQMNSLKPEDTAVFYCAAVYTTGGYTGLEYWGQGTQVTVSS | high polyreactivity
QVQLVESGGGLVQAGGSLRLSCAAYGRTFHAYAKGWYRQAPGKGRELVAAITRTGTTHYADSVKGRFTISRDNAKNTVYLQMNSLKPEDTAVYYCAAQHVRVDAQFVLQGYDYWGQGTQVTVSS | low polyreactivity

Sequence | polyreactivity (PSR sort gate)
QVQLVESGGGLVQAGGSLRLSCAASGSIFGAYMGWYRQAPGTEREFVAAINRSGSSTYYADSVKGRFTISRDNAKNTVYLQMNSLKPEDTAVYYCAAKYPGGETYPFDYWGQGTQVTVSS | low polyreactivity
QVQLVESGGGLVQAGGSLRLSCAASGNIFRYNAMGWYRQAPGKERELVAAISRGGSTKYADSVKGRFTISRDNAKNTVYLQMNSLKPEDTAVFYCARVKSTGSTFASPYDYWGQGTQVTVSS | high polyreactivity
QFQLVESGGRLVQAGGSLRLSCAASGFTFNRYAMGSYRQAPGKGREFVAAITRRGGSTYYADSVKGRFTISRDNAKNTVYLQMNSLKPEDTAVYYCNVKPSARGSPLYDYWGQGTQVTVSS | high polyreactivity
QVQLVESGGGLGQAGGSLRLSCAASGSTFPYYAMGWSRPAPGKERELVAVITSSGSRTYYADSVKGRFSMSRDKAKNTVYLQMNSLKPEETAVYYCARDTRYYRPYRSQYDYWGQGTQVTVSS | high polyreactivity
QVQLVESGGGLVQAGGSLRLSCAASGGIFHHYAMGWSRPAPGKERELVAGISWRGTSTYYADSVKGRFTISRDNAKNTVYLQMNSLKPEDTAVYYCARVYPYSVGYNSGHPASYDYWGQGTQVTVSS | high polyreactivity
QVQLVESGGGLVQAGGSLRLSCAASGRTFRWYAMGWYIQAPGKERELVAAITSGGSTYYADSVKGRFTISRDNAKNTVYLQMNSLKPEDTAVYYCNAVSTSGAFDYWGQGTQVTVSS | high polyreactivity
QVQLVESGGGFVQAGGSLRLSSAASGLTFAAYAMGWSRQAPGKERELVASISRRGGSTYYADSVKGRFTISRDNAMNTVYLQMNSLKPEDTAVYYCAARSFWGGLRYDYWGQGTQVTVSS | high polyreactivity
QVQLVESGGGLVQAGGSLRLSCAASGRTFYGYTMGWYRQAPGKERELVAAISRNGASTFYADSVKGRFTISRDNAKNTVYLQMNSLKPEDTAVYYCNARSWRHTDTSFEYWGQGTQVTVSS | high polyreactivity
QVQLVESGGGLVQAGGSLRLSCAASGSIFAAYVMGWYRQAPGKERELVAAISYSGGGTYYADSVKGRFTISRDNAKNTVYLQMNSLKPEDTAVYYCAADFGVFKSARYYYWGQGTQVTVSS | low polyreactivity
PVQVVESGGVLVQAGGSRRLSCAAAGGNFYGNVMGWYRQAPGKERELVADITSVSSTYYADSVKGRFTISRDNAKNTVFLQMKRLKPEDTAVYYCAPEPDHVADSHSGYDYWGQGTQVTVSS | low polyreactivity
QVQHVESGGGLVQAGGSLRLSCAASGSTFPANAMGRYRQAPVKERELVAVISSGGRTYYADSVKGRFTISRDNAKNTVYLQLNSLKPEDTEVYYCAAGSYAGSGPSPWLEYWGQGTQVTVSS | high polyreactivity
QVQLVESGGGLVQAGGSLRLSCAASGSIFYVNAMGWYRQEPGKERELVAAISYRGGSTYYADSVKGRFTISRDNAKNTVYLQMNSLKPEDTSVYYCAKRLYGSYHSDYWGQGTQVTVSS | high polyreactivity
QVQLVESGGGLVQAGGSLRLSCAASGIIFPSYAMGWYRQAPGKERELVAGISSGGNTYYADSVKGRFTISRDNAKNTVYLQMNSLKPEDTAVYYCATAFAIWGLYYGYDYWGQGTQVTVSS | low polyreactivity
QVQLVESGGGLVQAGGSLRLSCAASGRTFYANTMGRYRQAPGTERELVAGITSGGSTSYADSVKGRFTISRDNAKNTVYLQMNSLKPEDTAVYYCAAQFYRYTATGYYADGYWGQGTQVTVSS | low polyreactivity
QVQLVESGGGLVQAGGSLRLSCAASGSTLNRNVMGWYRQAPGKERELVAVITYGVGSTYYADSVKGRFTISRDNAKNTVYLQMNSLKPEDTAVYYCNRPTYLHSTSYSYDYWGQGTQVTVSS | low polyreactivity
QVQLVESGGGLVQAGGSLRLSCAASGITFPDYAMGWYRQAPGKERELVASISDSGGNTYYADSVKGRFTISRDNAKNTVYLQMNSLKPEDTAVYYCAVDSWYYYIVLYDYWGQGTQVTVSS | high polyreactivity
QVQLVESGGGLVQAGGSIRLSCAASGTIFRSYAMGWYRQAPGKERELVAAITSSSGSTYYADSVKGRFTISRDNAKNTVYLQMNSLKPEDTAGYYFNAPYWKSRFRAYYHWGQGTQVTVSS | high polyreactivity
QVQLQESGGGLVQAGGSLRLSCAASGSNSILQSMGWYRQAPGKERELVAGINWGATTYYADSVKGRLTTSRDYAKNSVYLQMNSLKPEDTAVYFCAVPTYYTYPLLYWGQGTQVTVSS | low polyreactivity
QVQLVESGRGLVQAGGSLRLSCAASGRIFYVYDMGWYRQAPGKESELVAAITQSGGRTYYADSVKGRFTISRDNAKNTVYLQRNSLKPEDTAVYYCAATWLGSRNLVHITLYYWGQGTQVTVSS | low polyreactivity
QVQLVESGVRLVQAGGSLRLSCAASGFTFRLYAMGWYIQAPGKERELVAATTSGGSTYYADSVKGRFTISRDNAKNTVYLQMNSLKPEDTAVYYCNKLYRTSVEYDYWGQGTQVTVSS | high polyreactivity
QVQLVESGGGLVQAGGSHRLSCAASGSIFYAYAMGWYRQAPGKERELVAAITGSGGRTYYADSVKGRFTISRDNAKNTVYLQMNSLKPEDTAVYYCNAYYYRGSSYGYWGQGTQVTVSS | high polyreactivity
